This is an account of results in article PMC9528458 (Science signaling, 2022).

Assay [1] concerns the target T1, mouse Fzd4 (residues 41-537), monomeric, in lipid nanodiscs (mouse, UniProt Q61088 41-537).
T1 sequence (looked up): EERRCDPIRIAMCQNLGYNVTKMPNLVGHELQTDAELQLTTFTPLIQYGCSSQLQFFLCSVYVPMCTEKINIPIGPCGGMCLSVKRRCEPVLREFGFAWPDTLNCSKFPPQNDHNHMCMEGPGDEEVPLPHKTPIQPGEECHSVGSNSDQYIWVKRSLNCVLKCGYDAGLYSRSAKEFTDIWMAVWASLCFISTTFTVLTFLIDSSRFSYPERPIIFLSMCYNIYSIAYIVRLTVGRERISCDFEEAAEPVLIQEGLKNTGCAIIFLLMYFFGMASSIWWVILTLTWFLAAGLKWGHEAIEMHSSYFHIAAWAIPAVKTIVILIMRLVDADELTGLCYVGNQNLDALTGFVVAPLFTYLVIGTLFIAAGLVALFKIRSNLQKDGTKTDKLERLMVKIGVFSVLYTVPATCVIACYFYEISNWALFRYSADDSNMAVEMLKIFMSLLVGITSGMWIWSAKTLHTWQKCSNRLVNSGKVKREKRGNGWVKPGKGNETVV
Description: BLI. Background: In BLI a coated tip is dipped into the sample, and binding shifts an interference pattern.

In assay [2] the target is T1, mouse Fzd4 (residues 41-537), …. Description: BLI. This is another data set of the same source.
Assay [3] has the same target. Briefly: BLI. The source holds these as a separate data set.
Assay [4] has the same target. Description: BLI. The source holds these as a separate data set.
The target in assay [5] is human FZD7 (residues 33-574), in lipid nanodiscs (human, UniProt O75084 33-574). Briefly: BLI.
The target in assay [6] is pre-formed xWnt8-FZD5 complex in nanodiscs (human | Xenopus laevis, UniProt Q13467 27-585; P28026 23-358). Briefly: BLI.
Chain of pre-formed xWnt8-FZD5 complex in nanodiscs (Q13467 27-585, one chain of several): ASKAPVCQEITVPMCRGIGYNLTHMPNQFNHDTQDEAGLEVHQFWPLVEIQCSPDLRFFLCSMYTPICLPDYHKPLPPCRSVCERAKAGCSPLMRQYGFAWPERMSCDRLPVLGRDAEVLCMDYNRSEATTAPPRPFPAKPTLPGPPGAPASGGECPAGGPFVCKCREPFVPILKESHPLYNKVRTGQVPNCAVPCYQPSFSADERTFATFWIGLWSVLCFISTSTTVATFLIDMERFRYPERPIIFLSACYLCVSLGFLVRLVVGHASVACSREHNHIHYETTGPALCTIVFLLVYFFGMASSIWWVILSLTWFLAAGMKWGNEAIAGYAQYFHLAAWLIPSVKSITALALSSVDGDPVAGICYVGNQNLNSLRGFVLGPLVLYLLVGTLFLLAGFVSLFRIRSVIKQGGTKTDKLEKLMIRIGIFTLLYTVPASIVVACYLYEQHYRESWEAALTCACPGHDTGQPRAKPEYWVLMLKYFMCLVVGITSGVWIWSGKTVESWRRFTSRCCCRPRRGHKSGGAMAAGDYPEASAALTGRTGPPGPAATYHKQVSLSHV
Assay [7] addresses T2, human FZD5 (residues 27-585), in lipid nanodiscs (human, UniProt Q13467 27-585). Description: BLI.
Assay [8] deals with T1, mouse Fzd4 (residues 41-537), …. Briefly: BLI. The source holds these as a separate data set.
For assay [9] the target is unchanged. Briefly: SEC. In general terms: Size exclusion chromatography separates by hydrodynamic size, large species first.
The target of assay [10] is T2, human FZD5 (residues 27-585), in lipid …. Briefly: SEC.
Assay [11] has as its target T1, mouse Fzd4 (residues 41-537), …. Description: BLI. This is another data set of the same source.

In general, Kd refers to the constant that tells how readily two partners part at equilibrium. The low end stands for higher affinity, the high end for lower affinity.

Like-named read-outs stand apart in the source and are kept apart here.

T2 sequence (Q13467 27-585): as the sequence (Q13467 27-585, one chain of several) above

B1: DEP domain of mouse Dvl2 (residues 416-510) (domain or fragment, UniProt Q60838 416-510, looked up)
chain: GLSVHMDMASVTKAMAAPESGLEVRDRMWLKITIPNAFLGSDVVDWLYHHVEGFPERREARKYASGLLKAGLIRHTVNKITFSEQCYYVFGDLSG
In the case of B1, the Kd was greater than 10000 nM in assay [1], roughly 40 nM in assay [2], 1200 nM in assay [3] and roughly 2000 nM in [4]. Besides, the binding result in assay [5], in assay [6] and in assay [7] was “binds” throughout.

B2: DEP domain of mouse Dvl2 bearing a G436P mutation (domain or fragment, UniProt Q60838 416-510, looked up)
chain: GLSVHMDMASVTKAMAAPESPLEVRDRMWLKITIPNAFLGSDVVDWLYHHVEGFPERREARKYASGLLKAGLIRHTVNKITFSEQCYYVFGDLSG
Turning to B2, in [8], the binding result is “binds”.

B3: Xenopus laevis Wnt8 (ligand, UniProt P28026 23-358, looked up)
chain: AWSVNNFLMTGPKAYLTYSASVAVGAQNGIEECKYQFAWERWNCPESTLQLATHNGLRSATRETSFVHAISSAGVMYTLTRNCSMGDFDNCGCDDSRNGRIGGRGWVWGGCSDNAEFGERISKLFVDGLETGQDARALMNLHNNEAGRLAVKETMKRTCKCHGISGSCSIQTCWLQLAEFRDIGNHLKIKHDQALKLEMDKRKMRSGNSADNRGAIADAFSSVAGSELIFLEDSPDYCLKNISLGLQGTEGRECLQSGKNLSQWERRSCKRLCTDCGLRVEEKKTEIISSCNCKFHWCCTVKCEQCKQVVIKHFCARRERDSNMLNTKRKNRGHRR
For B3, the binding result in assay [9] and in assay [10] was “binds” throughout.

B4: human Norrin (ligand, UniProt Q00604 25-133, looked up)
chain: KTDSSFIMDSDPRRCMRHHYVDSISHPLYKCSSKMVLLARCEGHCSQASRSEPLVSFSTVLKQPFRSSCHCCRPQTSKLKALRLRCSGGMRLTATYRYILSCHCEECNS
As to B4, the binding result in assay [11] is on record as “binds”.
